We go through two substances from article PMC12065913.

Some results are limits rather than exact numbers.

The target in assay [1] is AceE fragment 2, stalled nascent chain (E. coli) (UniProt P0AFG8). The assay is described as follows: optical tweezers with two-color confocal single-molecule fluorescence; single stalled ribosome-nascent chain complexes tethered between beads by DNA handles; 100 nM labelled TF and 100 nM labelled DnaK in solution, with or without 17 nM DnaJ and 10 nM GrpE; TICO buffer, 1 mM ATP and regeneration system.

Assay [2] addresses AceE fragment 5, stalled nascent chain (E. coli). The description is as above.

UniProt P0AFG8, sequence (P0AFG8 1-200): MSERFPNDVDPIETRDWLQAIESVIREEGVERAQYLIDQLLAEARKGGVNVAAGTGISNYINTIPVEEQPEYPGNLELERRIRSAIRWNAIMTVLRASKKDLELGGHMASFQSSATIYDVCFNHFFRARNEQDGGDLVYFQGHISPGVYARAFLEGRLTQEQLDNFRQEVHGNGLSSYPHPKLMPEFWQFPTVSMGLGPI

In assay [1], “TF-99C, ATTO647N labelled (from UniProt P0A850 1-432) (natural protein)” came in with a binding time (more folded nascent chains) greater than 50 s.
In assay [2], “DnaK-290C, ATTO532 labelled (from UniProt P0A6Y8 1-638) (natural protein)” registered a residence time (nascent chains folded by more than one-third) greater than 10 s and a residence time (nascent chains less than one-third folded) of less than 5 s.
